Laboratory results as given in publication PMC6294489, “Structural basis for receptor-regulated SMAD recognition by MAN1” (Nucleic Acids Research, 2018).

What was measured:
[1] = molecular target: T1, His-GST-SMAD1C-2E H364Y-F366W (human, UniProt Q15797-1 259-465, H364Y | F366W | S463E | S465E); test: pull-down; His-GST-SMAD1C-2E, its mutant or His-GST-SMAD2C-2E (2.5 μM) on Ni-NTA resin, Trx-MAN1(762–890)-SDED (5 μM; 5, 10 and 20 μM in the comparison of SMAD1 with SMAD2); 50 mM Tris–HCl pH 9.0, 200 mM NaCl, 10 mM imidazole, 10% glycerol, 1 mM TCEP; conditions: both partners purified
T1 construct: SMAD1, human, MH2 domain, residues 259–465 with S463E, S465E, H364Y and F366W; also called H364Y-F366W double mutant of SMAD1; source: E. coli BL21(DE3) with pG-KJE8, purified (Ni-NTA, MonoQ); not shown: His tag, N-terminal, kept; GST, N-terminal, kept

SMAD2C-2E (human) = test: ITC; Trx-MAN1(762–890)-SDED (255 μM) injected into SMAD1C-2E (20 μM) or SMAD2C-2E (25 μM); 20°C; 100 mM Na2HPO4 pH 8.0, 150 mM NaCl, 1 mM TCEP; one set of sites model
SMAD1C-2E [2] = molecular target: T2, SMAD1C-2E (human, UniProt Q15797-1 259-465, S463E | S465E); test: as above; conditions: both partners purified
T2 construct: SMAD1, human, MH2 domain, residues 259–465 with S463E and S465E; Crystals: from pGEX-6P-SMAD1C-2E (GST cleaved); treated as the same molecule; also called phosphorylated-state mimic of the MH2 domain of SMAD1; source: E. coli BL21(DE3) with pG-KJE8; for ITC and thermal shift purified (Ni-NTA, HRV3C protease, MonoQ); not shown: GST, N-terminal, cleaved

SMAD1C-2E [3] = molecular target: T2, SMAD1C-2E; test: thermal shift assay; SMAD1C-2E or SMAD2C-2E (10 μM) with Trx-MAN1(762–911)-SDED (10 μM), SYPRO Orange; 10 mM Tris–HCl pH 9.0, 200 mM NaCl, 1 mM TCEP; 20 to 95°C; conditions: both partners purified

T2 sequence (Q15797 259-465 S463E/S465E): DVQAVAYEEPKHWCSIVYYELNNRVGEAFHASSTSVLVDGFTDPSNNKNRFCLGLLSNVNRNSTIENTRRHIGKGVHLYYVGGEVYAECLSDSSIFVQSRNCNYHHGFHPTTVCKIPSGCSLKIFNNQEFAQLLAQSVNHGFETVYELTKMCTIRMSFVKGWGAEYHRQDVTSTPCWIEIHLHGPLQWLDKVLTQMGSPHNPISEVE
T1 sequence (Q15797 259-465 H364Y/F366W/S463E/S465E): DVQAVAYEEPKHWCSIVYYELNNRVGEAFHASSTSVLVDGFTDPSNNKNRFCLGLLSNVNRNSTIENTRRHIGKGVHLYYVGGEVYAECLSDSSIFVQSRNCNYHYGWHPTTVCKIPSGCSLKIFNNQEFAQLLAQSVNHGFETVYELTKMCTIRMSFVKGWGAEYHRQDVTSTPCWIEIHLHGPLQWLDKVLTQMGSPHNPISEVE

B1: Trx-MAN1(762–890)-SDED (domain or fragment, human, UniProt Q9Y2U8 762-890, looked up)
chain: SKVWQGQAFHLDRRNSPPNSLTPCLKIRNMFDPVMEIGDQWHLAIQEAILEKCSDNDGIVHIAVDKNSREGCVYVKCLSPEYAGKAFKALHGSWFDGKLVTVKYLRLDRYHHRFPQALTSNTPLKPSNK
notes: MAN1, human, residues 762–890 (ULM and UHM domain); Layout: His-tag, HRV3C site, Trx, Gly-Ser, MAN1, Ser-Asp-Glu-Asp; His tag cut off with HRV3C; source: E. coli Rosetta (DE3), purified (Ni-NTA, HRV3C protease, MonoQ); not shown: His tag, N-terminal, cleaved; Trx, N-terminal, kept; SDED (Ser-Asp-Glu-Asp), C-terminal, kept
[1]
  binding result: binds
SMAD2C-2E (human)
  Kd: 3.3 µM
SMAD1C-2E [2]
  Kd: 0.35 µM

B2: Trx-MAN1(762–911)-SDED (domain or fragment, human, UniProt Q9Y2U8 762-911, looked up)
chain: SKVWQGQAFHLDRRNSPPNSLTPCLKIRNMFDPVMEIGDQWHLAIQEAILEKCSDNDGIVHIAVDKNSREGCVYVKCLSPEYAGKAFKALHGSWFDGKLVTVKYLRLDRYHHRFPQALTSNTPLKPSNKHMNSMSHLRLRTGLTNSQGSS
notes: MAN1, human, residues 762–911 (ULM, UHM domain and C-terminal disordered region); source: E. coli Rosetta (DE3), purified (Ni-NTA, HRV3C protease, MonoQ); not shown: His tag, N-terminal, cleaved; Trx, N-terminal, kept; SDED (Ser-Asp-Glu-Asp), C-terminal, kept
SMAD1C-2E [3]
  Tm of SMAD1C-2E with the binder (48.5°C without): 50.5 °C
